Measured values: publication PMC8342987
Where two headings read alike, the source gives them in different places.

With SYK: SYK (K375R, K517R) the other (ubiquitination at K375) was “changes” and the other (ubiquitination at K517) was “changes”.

With SYK: SYK (Y525F, Y526F) the other (phosphorylation at Y525) was “no change” and the other (phosphorylation at Y526) was “no change”.
